Publication PMC8961561, “PEPscan: A Broad Spectrum Approach for the Characterization of Protein-Binder Interactions?” (Biomolecules, 2022)

How the values were obtained:
[1] = target: T1, SLAM-Associated Protein (SAP) (UniProt O60880 1-128); assay: peptide or protein array; PEPscan: overlapping dodecapeptides (two amino acid shift) spanning the complete sequence of one partner on a cellulose membrane; saturated with 3% non-fat dry milk/3% BSA; incubated with the purified protein partner (4 mg/mL, 4 °C, overnight); antibody against that protein, HRP-conjugated secondary antibody, ECL; conditions: both partners purified
T1 construct: SAP, UniProt O60880, full size 128
T1 sequence (looked up): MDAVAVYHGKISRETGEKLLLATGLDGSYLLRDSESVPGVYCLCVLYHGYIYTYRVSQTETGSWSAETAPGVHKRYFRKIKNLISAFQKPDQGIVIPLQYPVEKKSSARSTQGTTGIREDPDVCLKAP

TIMP-1 = target: T2, TIMP-1 (UniProt P01033 24-207); assay: as above; conditions: both partners purified
T2 construct: TIMP-1, UniProt P01033, full size 207
T2 sequence (P01033 24-207): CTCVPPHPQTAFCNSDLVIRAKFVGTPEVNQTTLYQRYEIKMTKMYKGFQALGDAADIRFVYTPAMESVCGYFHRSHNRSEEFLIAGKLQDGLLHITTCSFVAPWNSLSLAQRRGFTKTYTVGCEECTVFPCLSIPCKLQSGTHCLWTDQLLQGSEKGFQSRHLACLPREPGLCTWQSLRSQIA

B1: Fyn fragment ALYDYEARTEDDLSFH (peptide)
peptide: ALYDYEARTEDDLSFH
notes: stretch of Fyn; union of positive overlapping dodecapeptide spots 2:14–16; also called FSYN-SH3 2:14–16; source: spot synthesis on cellulose membrane
Q: Does B1 bind [1]?
A: binds

B2: MMP1 fragment FREYNLHRVAAHELGHSL (peptide)
peptide: FREYNLHRVAAHELGHSL
notes: stretch of MMP-1; union of positive overlapping dodecapeptide spots 4:11–14; also called MMP1 4:11–14; source: spot synthesis on cellulose membrane
Q: Does B2 bind (TIMP-1)?
A: binds
